Measured values reported in patent US20110105394A1 (Novo Nordisk, published 2011).
*1 amine or outer side, *2 acyl side, *3 side chain or, on linkers, in order; H or OH if unused. Bridges are numbered along the chain shown (N, C = ends). Where no end group is shown, it is not given here. The star is where a group is joined. X1 = (S)‑4‑Carboxy‑4‑(17-carboxyheptadecanoylamino)butyryl, O=C(O)CCCCCCCCCCCCCCCCC(=O)N[C@@H](CCC(=O)*)C(=O)O; C20 diacid = O=C(O)CCCCCCCCCCCCCCCCCCC(=O)*; γGlu = O=C(O)[C@H](CCC(=O)[*:2])N[*:1]; AEEA = NCCOCCOCC(=O)O

T1: Amylin 3(a) receptor (human calcitonin receptor (CTa) with RAMP-3) (human, UniProt P30988 25-474; O60896 24-148, limits assumed)
T1 sequence (looked up) 1: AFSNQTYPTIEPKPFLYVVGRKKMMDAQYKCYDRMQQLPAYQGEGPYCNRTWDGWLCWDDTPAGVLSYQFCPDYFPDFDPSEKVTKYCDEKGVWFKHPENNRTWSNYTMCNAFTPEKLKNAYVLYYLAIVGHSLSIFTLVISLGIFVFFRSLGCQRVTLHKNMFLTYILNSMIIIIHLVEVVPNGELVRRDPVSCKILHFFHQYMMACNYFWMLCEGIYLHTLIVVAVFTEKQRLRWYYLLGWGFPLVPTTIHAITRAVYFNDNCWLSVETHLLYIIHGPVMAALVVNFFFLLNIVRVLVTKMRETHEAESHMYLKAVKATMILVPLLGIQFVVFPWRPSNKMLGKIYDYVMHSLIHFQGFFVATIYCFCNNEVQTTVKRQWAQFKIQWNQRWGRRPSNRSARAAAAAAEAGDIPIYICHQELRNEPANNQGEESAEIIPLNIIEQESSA
T1 sequence (looked up) 2: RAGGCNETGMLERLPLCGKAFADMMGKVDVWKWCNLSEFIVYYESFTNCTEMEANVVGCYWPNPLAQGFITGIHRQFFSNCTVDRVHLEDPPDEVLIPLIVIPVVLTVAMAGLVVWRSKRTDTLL


biological target: T1, Amylin 3(a) receptor (human calcitonin …); experiment: cell-based or functional assay

| Binder | Potency Luciferase |
| --- | --- |
| CNTATCATQRLANFLAHSSNNFGPILPPTNVGSNTY-NH2 (disulfide 1-6; not fully specified (N-terminus); printed as N-alpha-[(S)-4-Carboxy-4-(19-carboxynonadecanoylamino)butyryl]-[Ala17]-pramlintide (2-37)) [N-alpha-[(S)-4-Carboxy-4-(19-carboxynonadecanoylamino)butyryl]-[Ala17]-pramlintide (2-37)] | 0.1 nM |
| X1-CNTATCATQRLANFLHHSSNNFGPILPPTNVGSNTY-NH2 (disulfide 1-6) [N-alpha-[(S)-4-Carboxy-4-(17-carboxyheptadecanoylamino)butyryl]-[His17]-pramlintide (2-37)] | 0.08 nM |
| {C20 diacid-γGlu}-CNTATCATQRLANFLGHSSNNFGPILPPTNVGSNTY-NH2 (disulfide 1-6; SMILES CC[C@H](C)[C@H](NC(=O)[C@@H]1CCCN1C(=O)CNC(=O)[C@H](Cc1ccccc1)NC(=O)[C@H](CC(N)=O)NC(=O)[C@H](CC(N)=O)NC(=O)[C@H](CO)NC(=O)[C@H](CO)NC(=O)[C@H](Cc1c[nH]cn1)NC(=O)CNC(=O)[C@H](CC(C)C)NC(=O)[C@H](Cc1ccccc1)NC(=O)[C@H](CC(N)=O)NC(=O)[C@H](C)NC(=O)[C@H](CC(C)C)NC(=O)[C@H](CCCNC(=N)N)NC(=O)[C@H](CCC(N)=O)NC(=O)[C@@H](NC(=O)[C@H](C)NC(=O)[C@@H]1CSSC[C@H](NC(=O)CC[C@H](NC(=O)CCCCCCCCCCCCCCCCCCC(=O)O)C(=O)O)C(=O)N[C@@H](CC(N)=O)C(=O)N[C@@H]([C@@H](C)O)C(=O)N[C@@H](C)C(=O)N[C@@H]([C@@H](C)O)C(=O)N1)[C@@H](C)O)C(=O)N[C@@H](CC(C)C)C(=O)N1CCC[C@H]1C(=O)N1CCC[C@H]1C(=O)N[C@H](C(=O)N[C@@H](CC(N)=O)C(=O)N[C@H](C(=O)NCC(=O)N[C@@H](CO)C(=O)N[C@@H](CC(N)=O)C(=O)N[C@H](C(=O)N[C@@H](Cc1ccc(O)cc1)C(N)=O)[C@@H](C)O)C(C)C)[C@@H](C)O) [N-alpha-[(S)-4-Carboxy-4-(19-carboxynonadecanoylamino)butyryl]-[Gly17]-pramlintide (2-37)] | 0.4 nM |

Other lines, results leading:

| Potency Luciferase | Binder |
| --- | --- |
| 0.1 nM | {C20 diacid-γGlu-AEEA}-CNTATCATQRLANFLHHSSNNFGPILPPTNVGSNTY-NH2 (disulfide 1-6) |
| 0.1 nM | {C20 diacid-γGlu}-CNTATCATQRLANFLSHSSNNFGPILPPTNVGSNTY-NH2 (disulfide 1-6; SMILES CC[C@H](C)[C@H](NC(=O)[C@@H]1CCCN1C(=O)CNC(=O)[C@H](Cc1ccccc1)NC(=O)[C@H](CC(N)=O)NC(=O)[C@H](CC(N)=O)NC(=O)[C@H](CO)NC(=O)[C@H](CO)NC(=O)[C@H](Cc1c[nH]cn1)NC(=O)[C@H](CO)NC(=O)[C@H](CC(C)C)NC(=O)[C@H](Cc1ccccc1)NC(=O)[C@H](CC(N)=O)NC(=O)[C@H](C)NC(=O)[C@H](CC(C)C)NC(=O)[C@H](CCCNC(=N)N)NC(=O)[C@H](CCC(N)=O)NC(=O)[C@@H](NC(=O)[C@H](C)NC(=O)[C@@H]1CSSC[C@H](NC(=O)CC[C@H](NC(=O)CCCCCCCCCCCCCCCCCCC(=O)O)C(=O)O)C(=O)N[C@@H](CC(N)=O)C(=O)N[C@@H]([C@@H](C)O)C(=O)N[C@@H](C)C(=O)N[C@@H]([C@@H](C)O)C(=O)N1)[C@@H](C)O)C(=O)N[C@@H](CC(C)C)C(=O)N1CCC[C@H]1C(=O)N1CCC[C@H]1C(=O)N[C@H](C(=O)N[C@@H](CC(N)=O)C(=O)N[C@H](C(=O)NCC(=O)N[C@@H](CO)C(=O)N[C@@H](CC(N)=O)C(=O)N[C@H](C(=O)N[C@@H](Cc1ccc(O)cc1)C(N)=O)[C@@H](C)O)C(C)C)[C@@H](C)O) [N-alpha-[(S)-4-Carboxy-4-(19-carboxynonadecanoylamino)butyryl]-[Ser17]-pramlintide (2-37)] |
| 0.2 nM | {C20 diacid-γGlu}-CNTATCATQRLANFLRHSSNNFGPILPPTNVGSNTY-NH2 (disulfide 1-6; SMILES CC[C@H](C)[C@H](NC(=O)[C@@H]1CCCN1C(=O)CNC(=O)[C@H](Cc1ccccc1)NC(=O)[C@H](CC(N)=O)NC(=O)[C@H](CC(N)=O)NC(=O)[C@H](CO)NC(=O)[C@H](CO)NC(=O)[C@H](Cc1c[nH]cn1)NC(=O)[C@H](CCCNC(=N)N)NC(=O)[C@H](CC(C)C)NC(=O)[C@H](Cc1ccccc1)NC(=O)[C@H](CC(N)=O)NC(=O)[C@H](C)NC(=O)[C@H](CC(C)C)NC(=O)[C@H](CCCNC(=N)N)NC(=O)[C@H](CCC(N)=O)NC(=O)[C@@H](NC(=O)[C@H](C)NC(=O)[C@@H]1CSSC[C@H](NC(=O)CC[C@H](NC(=O)CCCCCCCCCCCCCCCCCCC(=O)O)C(=O)O)C(=O)N[C@@H](CC(N)=O)C(=O)N[C@@H]([C@@H](C)O)C(=O)N[C@@H](C)C(=O)N[C@@H]([C@@H](C)O)C(=O)N1)[C@@H](C)O)C(=O)N[C@@H](CC(C)C)C(=O)N1CCC[C@H]1C(=O)N1CCC[C@H]1C(=O)N[C@H](C(=O)N[C@@H](CC(N)=O)C(=O)N[C@H](C(=O)NCC(=O)N[C@@H](CO)C(=O)N[C@@H](CC(N)=O)C(=O)N[C@H](C(=O)N[C@@H](Cc1ccc(O)cc1)C(N)=O)[C@@H](C)O)C(C)C)[C@@H](C)O) [N-alpha-[(S)-4-Carboxy-4-(19-carboxynonadecanoylamino)butyryl]-[Arg17]-pramlintide (2-37)] |
| 8 nM | {C20 diacid-γGlu}-CNTATCATQRLANFLPHSSNNFGPILPPTNVGSNTY-NH2 (disulfide 1-6; SMILES CC[C@H](C)[C@H](NC(=O)[C@@H]1CCCN1C(=O)CNC(=O)[C@H](Cc1ccccc1)NC(=O)[C@H](CC(N)=O)NC(=O)[C@H](CC(N)=O)NC(=O)[C@H](CO)NC(=O)[C@H](CO)NC(=O)[C@H](Cc1c[nH]cn1)NC(=O)[C@@H]1CCCN1C(=O)[C@H](CC(C)C)NC(=O)[C@H](Cc1ccccc1)NC(=O)[C@H](CC(N)=O)NC(=O)[C@H](C)NC(=O)[C@H](CC(C)C)NC(=O)[C@H](CCCNC(=N)N)NC(=O)[C@H](CCC(N)=O)NC(=O)[C@@H](NC(=O)[C@H](C)NC(=O)[C@@H]1CSSC[C@H](NC(=O)CC[C@H](NC(=O)CCCCCCCCCCCCCCCCCCC(=O)O)C(=O)O)C(=O)N[C@@H](CC(N)=O)C(=O)N[C@@H]([C@@H](C)O)C(=O)N[C@@H](C)C(=O)N[C@@H]([C@@H](C)O)C(=O)N1)[C@@H](C)O)C(=O)N[C@@H](CC(C)C)C(=O)N1CCC[C@H]1C(=O)N1CCC[C@H]1C(=O)N[C@H](C(=O)N[C@@H](CC(N)=O)C(=O)N[C@H](C(=O)NCC(=O)N[C@@H](CO)C(=O)N[C@@H](CC(N)=O)C(=O)N[C@H](C(=O)N[C@@H](Cc1ccc(O)cc1)C(N)=O)[C@@H](C)O)C(C)C)[C@@H](C)O) [N-alpha-[(S)-4-Carboxy-4-(19-carboxynonadecanoylamino)butyryl]-[Pro17]-pramlintide (2-37)] |
